Key:
[1] = molecular target: T1, ALK6; test: solid-phase binding assay, half max as printed (FIG. 9)
T1 construct: Soluble ALK6 titrated at 3.125-100 nM over immobilized MuSK constructs; That is inferred from the anti-human IgG Fc detection antibody; also called BMPR1b; BMPR1B

[2] = molecular target: T1, ALK6; test: solid-phase binding assay, ALK6 at 100 nM, FL ECD against ΔIg2 (FIG. 7)

T1 sequence (O00238 whole entry, the tested form may be a part): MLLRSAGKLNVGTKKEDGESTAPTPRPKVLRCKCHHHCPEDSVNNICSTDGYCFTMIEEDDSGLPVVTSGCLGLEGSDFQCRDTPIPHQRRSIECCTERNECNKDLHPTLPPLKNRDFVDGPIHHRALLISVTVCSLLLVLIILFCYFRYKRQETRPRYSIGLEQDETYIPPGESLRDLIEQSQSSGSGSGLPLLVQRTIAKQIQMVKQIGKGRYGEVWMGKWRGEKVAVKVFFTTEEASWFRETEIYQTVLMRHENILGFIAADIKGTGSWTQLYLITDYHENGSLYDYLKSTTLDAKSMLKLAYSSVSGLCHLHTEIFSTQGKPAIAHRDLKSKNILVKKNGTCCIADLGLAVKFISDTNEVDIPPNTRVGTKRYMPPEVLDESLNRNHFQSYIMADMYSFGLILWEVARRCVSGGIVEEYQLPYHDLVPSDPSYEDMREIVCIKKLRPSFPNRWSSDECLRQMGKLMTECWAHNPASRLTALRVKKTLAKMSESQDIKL

EC50 [1]: ~0.5 nM
fold increase in absorbance against ΔIg2 MuSK [2]: 6.6 fold
B1: full-length ectodomain (FL ECD) of MuSK, His-tagged (receptor)
chain: EKLPKAPVITTPLETVDALVEEVATFMCAVESYPQPEISWTRNKILIKLFDTRYSIRENGQLLTILSVEDSDDGIYCCTANNGVGGAVESCGALQVKMKPKITRPPINVKIIEGLKAVLPCTTMGNPKPSVSWIKGDSALRENSRIAVLESGSLRIHNVQKEDAGQYRCVAKNSLGTAYSKLVKLEVEVFARILRAPESHNVTFGSFVTLRCTAIGMPVPTISWIENGNAVSSGSIQENVKDRVIDSRLQLFITKPGLYTCIATNKHGEKFSTAKAAATVSIAEWSKSQKESKGYCAQYRGEVCDAVLVKDSLVFFNTSYPDPEEAQELLIHTAWNELKAVSPLCRPAAEALLCNHLFQECSPGVLPTPMPICREYCLAVKELFCAKEWLAMEGKTHRGLYRSGMHFLPVPECSKLPSMHQDPTACTRLPYLDYKKENITTFPSITSSKPSVDIPNLPASTSSFAVSPAYSMT

— US20240175869A1 (BROWN UNIVERSITY, published 2024)
